Assay: yeast display, Sf9 membrane polyspecificity reagent, FACS + sequencing; frameworks hold sequencing errors
In short: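 Galactose-induced (36–48 hours) yeast carrying a synthetic nanobody display library were exposed to 10% biotinylated, detergent-solubilized Sf9 membrane reagent at 4 °C for 1 hour. FACS followed streptavidin microbead enrichment, using low and high (top ~1%) gates for expression (anti-HA) and reagent binding (streptavidin). Colony PCR, MiSeq 2 × 250 sequencing and CDR-length filtering followed. Labels for polyreactivity reflect the gate of origin.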
In the case of “QVQLVESGGGLVQAGGSLSLSCAASGRTFRVYAMGSYRQSPRKERELVAAITNGGSTNYADSVKGRFTISRDNAKNTVYLQMNSLKPEDTAVYYCARVHRSYVAAQGVYVGNYYWGQGTQVTVSS”, the “polyreactivity (PSR sort gate)” value is reported as “high polyreactivity”.
For “QVQLVESGGGLVQAGGSLRLSCAASGSTFDSYAMGWYRQDPGKERELFAAITYSGGRTYYADSVKGRFTISRDNAKNTVYLQMNSLKPEDTAVYYCAATGVFRDEYWGQGTQVTVSS”, the “polyreactivity (PSR sort gate)” value was “low polyreactivity”.
In the case of “QVQLVESGGGLVQAGGSLRLSCAASGLIFFWYTMGWYRQAPGKERELVAAISGSGTGTYYADSVKGRFTISRDNAKNTVYLQMNSLIPEDTAVYYCATDYVYRGYLMNYWGQGTQVTVSS”, the “polyreactivity (PSR sort gate)” value is reported as “high polyreactivity”.
For “QVQLVESGGGLFQAGGSLRLSCAASGLTFYRYVMGWYRQAPGKERELVAAISDSGGSTYYADSVKGRFTISRDNAKNTVYLQMNSLKPEDTAVYYCAAEAPSFVYYSRYDYWGQGTQVTVSS”, the “polyreactivity (PSR sort gate)” value was “high polyreactivity”.
With “QVQLVESGAGLVQAGGRLRLSCAASGIIFRPYAMGWYRQAPGKERELVAAITGSGVSTYYADSVKGRFTISRDNAKITVYLQMNSLKPEDTAVYYCAKRYNRCDHRYDYWGQGTQVTVSS” the “polyreactivity (PSR sort gate)” value was “low polyreactivity”.
In the case of “QVQLVESGGGLVQAGGSLRLSCAASGSTFATYAMGWYRQAPGKERELVAVITRGGRTYYADSVKGRFTISRDNAKNTVYLQMNSLKPEDTAVYYCAAKAYTYYARIGFDYCGQGTQVTVSS”, the “polyreactivity (PSR sort gate)” value is reported as “high polyreactivity”.
For “QVQLVESGGGLVQAGGSLRLICAASGSTFIVYAMGWSRQAPGKEREFVAAISSGDSTKYADSVKGRFTISRDNAKNTVYLQMNSLKPEDTAVYYCAKYGQRSIHSPSLVGYYYWGQGTQVTVSS”, the “polyreactivity (PSR sort gate)” value was “low polyreactivity”.
In the case of “QVQLVESGGGLVQAGGSLRLSCAASGSIFHANAMGWYRQAPGKERELVAAITRSGRSTYYADSVKGRFTISRDNAKNTVYLQMNSLKPEDTAVYYCAARYYAGGLSSYDYWGQGTQVTVSS”, the “polyreactivity (PSR sort gate)” value is reported as “high polyreactivity”.
With “QVQLVESGGGLVQAGGSLRLSCAASGSIFTVYAMGWYRQAPGKERELVASISKSGGSTYYADSVKGRFTISRDNAKNTVYLQMNSLKPEDTAVYYCAAESGRTYSHRHYDSWGQGTQVTVSS” the “polyreactivity (PSR sort gate)” value was “low polyreactivity”.
With “QVQLVESGGGLDQARGSLRLSCAASGRIFELYAMGWYRQAPGKERELVAAITSSGGTTYYADSVKGRFTISRDNAKNTVYLQMNSLKPEDTAVYYCNTVYATRYDYWGQGTQVTVSS” the “polyreactivity (PSR sort gate)” value was “high polyreactivity”.
In the case of “QVHLVESGGGLVQAGGSLRLSCAASGRLFGVYVMGWYRQAPGKERELVAAISWSGSHTYYADSVKGRFTISRDNAKNTVYLQMNSLKPEDTEVYYCNADSYPDYTGPGLDWYDYWGQGTQVTVSS”, the “polyreactivity (PSR sort gate)” value is reported as “low polyreactivity”.
For “QVQLVESGGGLVQAGGSLRLSCPASGRTFYRNAMGWYRQAPGKEREFVAVITWSTGTTYYADSVKGRFTISRDNAKNTVYLQMNSPKPEDTAVYYCAADSQPPHELYESIEHESWGQGTQVTVSS”, the “polyreactivity (PSR sort gate)” value was “low polyreactivity”.
In the case of “QVQLVESGGGLVQAGGSLRLSCAASGRTFVKNNMGWYRQSPGKERELVAAISSSGGSTYYADSVKGRFTISRDNAKNSVYLHMNSLNPEDTAVYFCAVSYPYKHAGGWYAYNYWGQGTQVTVSS”, the “polyreactivity (PSR sort gate)” value is reported as “high polyreactivity”.
With “QVQLVETGGGLVQAGGSLRLSCAASGRTFYGNAMGWYRQAPGKEREFVAAIRGSGGSTYYADSVKGRFTISRDNAKNTVYLQMNSLKPEDTAVSYCNRGWAYGSAYYAKYYYWGQGTQVTVSS” the “polyreactivity (PSR sort gate)” value was “high polyreactivity”.
In the case of “QVQLVESGGGLVQAGGSLRLSCAASGSTSSVYAIGWYRQAPGKEREFVASITRRTGITFYADSVKGRFTISRDHAKNTVYLQMNSLKPEDTAVYYCAADFSGSVDYWGQGTQVTVSS”, the “polyreactivity (PSR sort gate)” value is reported as “high polyreactivity”.
For “QVQLVESGGGLVQAGGSLRLSCAASGITFDSYAMGWYRQAPGKERELVAAISYSGGSTYYADSVKGRFTISRDNAKNTVYLQMNSLKPDDTAVYYCAAASDDDYDYWGQGTKVTVSS”, the “polyreactivity (PSR sort gate)” value was “low polyreactivity”.
For “QVQLVESGGGLVQAGGSLRLSCAASGIIFDHYAMGWYRQAPGKERELVAAISTGGGNTYYADSVKGRFTISRDNAKNTVYLQMNSLKPEDTAVYYCAARRGTGSYSYRYPYGYDYWGQGTQVTVSS”, the “polyreactivity (PSR sort gate)” value was “low polyreactivity”.
With “QVQLVESGGGLVQAGGSLRLSCAASGFIFVRYAMGWYRQAPGTERELVASITRSGGSTYYADSVKGRFTISRDNAKNTVYLQLNSLKPEDSAVYYCAASYYRSRGSTYGYWGQGTQVTVSS” the “polyreactivity (PSR sort gate)” value was “high polyreactivity”.
In the case of “QVQLVESGGGLVQAGGSLRLSCAASGSTLNSYVMGWYRQAPGKERELVATIRSGSSTNYADSVKGRFTISRDNAKNTVYLQMNSLKPEDTAVYDCAADAYSLCYDSWGQGTQVTVSS”, the “polyreactivity (PSR sort gate)” value is reported as “low polyreactivity”.
In the case of “QVQLVESGGGLVQAGGSLRLSCAASGLIFVPYAMGWYRQAPGKERELVAAINSGATTYYADSVKGRFTISRDNAKNTVYLQMNSLKPEDTAVYYCNAEYPVYVYWFDYWGQGTQVTVSS”, the “polyreactivity (PSR sort gate)” value is reported as “high polyreactivity”.
In the case of “QIKLEESGGGLVQAGGSLRISCAASGSTYWDKVMGWYRQAPGKEMELVAAIDSGGSTYYADSVKGRFTISRDNAKNTVYLLMNSLKPEDTEVYYCNSRVDTPSPYDYWGQGTQVTVSS”, the “polyreactivity (PSR sort gate)” value is reported as “low polyreactivity”.
In the case of “QVQLVESGGGLVQAGGSLGLSCAASGYTFDHNAMGWYRQAPGKERELVAAINWSGGSTYYADSVKVRFTISRDNAKNTVYLQMKSLKPEDTAVYYCARYRVLASRVDYWGQGTQVTVSS”, the “polyreactivity (PSR sort gate)” value is reported as “high polyreactivity”.
For “QVQLVESRGRLVQAGGTLRLSCAASGNITSVYAMGWYRQAPGNERELVAAISGSGGSTYYADSVKGRFTISRDNAMNTVYLQMNSLKPEDTAVYYCAKGFQYQGNSYGYWGQGSQVTVSS”, the “polyreactivity (PSR sort gate)” value was “low polyreactivity”.
In the case of “QVQLVESGGGLVQAGGSLRLICAATGSTLVSNAMGWYRKDPGKERELVAAISTSGGSTYYADSVKGRFTISRDNAKNTVYLQMNSLKPEDTAVYYCAAPYAGWGDGGDYWGQGTQVTVSS”, the “polyreactivity (PSR sort gate)” value is reported as “low polyreactivity”.
For “QVQLVESGGGLVQAGGSLRLSCAASGYIFYFNAMGWYRQAPGKERELVAAISSRGTGTYADSVKGRFTISRDNAKNTVYLQMNSLKPEDTAVYYCNAYPSIYPGFYKTFFNMDYWGQGTQVTVSS”, the “polyreactivity (PSR sort gate)” value was “low polyreactivity”.
In the case of “QVQVVESGGGLVKAGGSLRLSCAASGGTFGNYAMGWYRQAPRKERELVAAINRSDGGTYYADSVKGRFTISRDNAKNTVYLQMNSLKPEDTAVYYCNAVDFYYDEPYDYWGQGTQVTVSS”, the “polyreactivity (PSR sort gate)” value is reported as “low polyreactivity”.
For “QVQLVESGGGLVQAGGSLRLSCAASGRTFNSYAMGWSRQAPGKDRELVAAISRTGASTYYADSVKGRFTISRDNAQNTVYLQMHSLKPEDTAVYYCAADANSGDGYYWGHGTQVTVSS”, the “polyreactivity (PSR sort gate)” value was “high polyreactivity”.
With “QVQLVESGGGLVQAGGSLRLSCAASGLTSVRYAMGWYRQAPGKERELVARISTGGSTYYADSVKGRFTISRDNAKNTVYLQMNSLKPEDTAVYYCNKGYARRYASGYDYWGQGTQVTVSS” the “polyreactivity (PSR sort gate)” value was “high polyreactivity”.
With “QVQLVESGGGLVQAGGSLRLSCAASGRTFTEYAMGWYRQAPGKERELVARISIGDSTYYADSVKGRFTISRDNAKNTVYLQMNSLKPEDTAVYYCNAEYSRSYRYDEGYWGQGTQVTVSS” the “polyreactivity (PSR sort gate)” value was “low polyreactivity”.
With “YYADSVKGLFTISRDNAKNTVYLQMNSLNPEDTAVYYCNAGYYISFNPYDYWGQGTQVTVSS” the “polyreactivity (PSR sort gate)” value was “low polyreactivity”.
In the case of “QVQLVESGGGLVQAGGSLRLSCAASGRIFGANAMGWYRQAPGKERELVAAISGSGGRTYYADSVKGRFTISRDNAKNTVYLQMNSLKPEDTAVYYCAAGRPTYSRYFGFEYWGQGTQVTVSS”, the “polyreactivity (PSR sort gate)” value is reported as “high polyreactivity”.
In the case of “QVQLVESGGGLVQAGGSLRLSCAASGRTFCSYTKAWYRQAPGKERELVAAISSGGSTTYADSVKGRFTISRDNAKNTVYLQLNSLKPEDTAVYYCATRAVWSSWGRRYDPWGQGTQVTVSS”, the “polyreactivity (PSR sort gate)” value is reported as “high polyreactivity”.
In the case of “QVQLVESGGGLVQAGGSLRLSCAASGSTFLRNVMGWYRQAPGKESELVAAISSRGGSTHYADSVKGRFTISRDNAKNSVYLQMNILKPEDTAVYYCNAERSAAQYVRAAYDYWGQGTQVTVSS”, the “polyreactivity (PSR sort gate)” value is reported as “low polyreactivity”.
In the case of “QVQLVESGGGLVQAGGSLRLSCAASGSIFSQKAMVWYRQAPGKERELVASISTGDSSTYADSVKGRFTISRDNAKNTVYLQMNSLKREDTAVYYCNAYRYNALPWRYVGYDYWGQGTQVTVSS”, the “polyreactivity (PSR sort gate)” value is reported as “low polyreactivity”.
For “QVQLVESGGGLVQAGGSLRLSCAATGFTFSRNTMGWYRQAPGKERELGARITKRGGTTYYADSVKGRFTISRDNAKNTVYLQMNCLKPEDSAVYYCAAATQNPGSDYWGQGTQVTVSS”, the “polyreactivity (PSR sort gate)” value was “high polyreactivity”.
With “QVQLVESGGGLVQAGGSLSLSCAASGFTFDYYAMGWYRQAPGKERELVAAISTSGGSTYYADSVKGRFTISRDNAMNTVYLQMNSLKPEDTAVYYCNVVFYEYSSVSYDYWGQGTQVTVSS” the “polyreactivity (PSR sort gate)” value was “high polyreactivity”.
In the case of “QVQLVESGGGLVQAGGSLRLSCAASGGTFDINDMGWYRQAPGKEREFVAAIDWSGGNTYYADSVKGRFIISRDNAKNTVYLQMNSLKPEDTAVYYCNARRKRSYDYWGQGTQVTVSS”, the “polyreactivity (PSR sort gate)” value is reported as “low polyreactivity”.
With “QVQLVESGGGLVQAGGSLRLSCAASGLIFPRYAMGWYRQAPGKERELVAAITSRAGSTYYADSVKGRFTISRDNAKNTVYLQMNSLKPEDTAVYYCAAVSDGWDGDMYYWGQGTQVTVSS” the “polyreactivity (PSR sort gate)” value was “low polyreactivity”.
With “QVQLVESGGGLVQAGGSLRLSCAASGSIIGGYVMGWYRQAPGKERELVAAITSRVGSTYYADSVKGRFTISRDNAKNTVYLQMNSLKPEDTAVYYCAVVFAKRAWSRYDYWGQGTQVTVSS” the “polyreactivity (PSR sort gate)” value was “high polyreactivity”.
For “QVQLQERGGGLVQAGGSLRLSCAASCTIFRFRYMGWHRQAPGKERELVAGINGGTTTYYADSVIGRFTISRDNAKNTLYLQMNSLKPDDTAVYNCAAVASRLTYYDYWGQGTQVTVSS”, the “polyreactivity (PSR sort gate)” value was “low polyreactivity”.
For “QVQLVESGGGLVQAGGSLRLSCAASGSTFYYYTMGWYRQAPGKERELVAAISSSGGSTYYADSVKGRFTISRDNAKNTVYLQMNSLKPEDTAVYYCNAARKGYRVYTLIDRHKYDYWGQGTQVTVSS”, the “polyreactivity (PSR sort gate)” value was “high polyreactivity”.
For “QVQLVESGGGLVQAGGSLRLSCAASGITFNYYAKGSYRQAPGKERELVATINRSGGTTYYADSVKGRFTISRDNAKNTVYLQMNSLKPAVTAVYYCGALSKTRGGYWGQGTQVTVSS”, the “polyreactivity (PSR sort gate)” value was “high polyreactivity”.
In the case of “QVQLVDSGGGLVQAGGSLRLSCSASGFTFAWYAMGWYRQAPGKERELVAAISGSGGRTYYADSVMGRFTISRDNAKNTVYLQMNSLIPEDTAVYYCATRRRYEYYWGQGTQVTVSS”, the “polyreactivity (PSR sort gate)” value is reported as “high polyreactivity”.
